In IntAct's records for PubMed 24165795:

B1: Phosphatidylinositol 4,5-bisphosphate 3-kinase catalytic subunit delta isoform (Homo sapiens), O00329 (parent)
chain: MPPGVDCPMEFWTKEENQSVVVDFLLPTGVYLNFPVSRNANLSTIKQLLWHRAQYEPLFHMLSGPEAYVFTCINQTAEQQELEDEQRRLCDVQPFLPVLRLVAREGDRVKKLINSQISLLIGKGLHEFDSLCDPEVNDFRAKMCQFCEEAAARRQQLGWEAWLQYSFPLQLEPSAQTWGPGTLRLPNRALLVNVKFEGSEESFTFQVSTKDVPLALMACALRKKATVFRQPLVEQPEDYTLQVNGRHEYLYGSYPLCQFQYICSCLHSGLTPHLTMVHSSSILAMRDEQSNPAPQVQKPRAKPPPIPAKKPSSVSLWSLEQPFRIELIQGSKVNADERMKLVVQAGLFHGNEMLCKTVSSSEVSVCSEPVWKQRLEFDINICDLPRMARLCFALYAVIEKAKKARSTKKKSKKADCPIAWANLMLFDYKDQLKTGERCLYMWPSVPDEKGELLNPTGTVRSNPNTDSAAALLICLPEVAPHPVYYPALEKILELGRHSECVHVTEEEQLQLREILERRGSGELYEHEKDLVWKLRHEVQEHFPEALARLLLVTKWNKHEDVAQMLYLLCSWPELPVLSALELLDFSFPDCHVGSFAIKSLRKLTDDELFQYLLQLVQVLKYESYLDCELTKFLLDRALANRKIGHFLFWHLRSEMHVPSVALRFGLILEAYCRGSTHHMKVLMKQGEALSKLKALNDFVKLSSQKTPKPQTKELMHLCMRQEAYLEALSHLQSPLDPSTLLAEVCVEQCTFMDSKMKPLWIMYSNEEAGSGGSVGIIFKNGDDLRQDMLTLQMIQLMDVLWKQEGLDLRMTPYGCLPTGDRTGLIEVVLRSDTIANIQLNKSNMAATAAFNKDALLNWLKSKNPGEALDRAIEEFTLSCAGYCVATYVLGIGDRHSDNIMIRESGQLFHIDFGHFLGNFKTKFGINRERVPFILTYDFVHVIQQGKTNNSEKFERFRGYCERAYTILRRHGLLFLHLFALMRAAGLPELSCSKDIQYLKDSLALGKTEEEALKHFRVKFNEALRESWKTKVNWLAHNVSKDNRQ

Variants of: B1
Conditions: with p85a_human PIK3R1, P27986
p85a_human PIK3R1, P27986, sequence (P27986 whole entry): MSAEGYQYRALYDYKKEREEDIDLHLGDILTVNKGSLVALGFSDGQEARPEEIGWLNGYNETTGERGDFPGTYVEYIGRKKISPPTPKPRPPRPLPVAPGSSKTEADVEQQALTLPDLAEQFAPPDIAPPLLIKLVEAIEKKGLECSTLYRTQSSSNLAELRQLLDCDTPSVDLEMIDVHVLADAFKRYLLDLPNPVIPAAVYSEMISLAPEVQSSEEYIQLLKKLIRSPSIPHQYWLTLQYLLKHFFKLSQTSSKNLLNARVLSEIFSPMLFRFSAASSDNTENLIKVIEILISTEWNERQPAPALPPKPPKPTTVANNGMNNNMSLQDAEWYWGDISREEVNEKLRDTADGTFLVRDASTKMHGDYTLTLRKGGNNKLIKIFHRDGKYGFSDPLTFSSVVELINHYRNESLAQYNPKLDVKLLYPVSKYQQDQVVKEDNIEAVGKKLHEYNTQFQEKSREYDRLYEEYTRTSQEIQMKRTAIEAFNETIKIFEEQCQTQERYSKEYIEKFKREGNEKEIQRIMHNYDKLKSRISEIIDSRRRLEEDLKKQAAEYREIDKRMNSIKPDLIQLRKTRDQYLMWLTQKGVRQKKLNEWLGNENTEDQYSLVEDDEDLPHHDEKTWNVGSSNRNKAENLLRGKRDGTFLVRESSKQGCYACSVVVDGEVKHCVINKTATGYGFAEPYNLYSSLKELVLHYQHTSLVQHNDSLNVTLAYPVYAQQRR

Variant	effect of a mutation on the interaction
E525K	with no effect
E1021K	with no effect
